Assay results published in US20240239894A1 (AstraZeneca / MedImmune, published 2024).
Substitutions are numbered along the chain they refer to. Where two headings read alike, the source gives them in different places.

How the values were obtained:
Test in all cases: ELISA, absorbance 450 nm; x axis printed as antigen concentration (µg/ml)
[1] = molecular target: T1, Human B7-H4-Fc (Human B7H4 ECD, Fc_6His) (human)
T1 construct: also called FcHis6 tagged human B7-H4
T1 sequence (Q7Z7D3 whole entry, looked up): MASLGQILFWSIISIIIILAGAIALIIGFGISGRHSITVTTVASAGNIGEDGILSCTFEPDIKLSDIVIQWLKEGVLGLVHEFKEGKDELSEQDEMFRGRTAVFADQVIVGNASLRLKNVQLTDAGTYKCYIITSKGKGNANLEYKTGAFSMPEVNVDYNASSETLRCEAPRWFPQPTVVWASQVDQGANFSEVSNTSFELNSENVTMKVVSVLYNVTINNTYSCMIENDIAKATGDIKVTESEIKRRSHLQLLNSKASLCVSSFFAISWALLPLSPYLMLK

[2] = molecular target: T2, Human B7-H4 ECD-Flag-His10 (monomeric) (human, UniProt Q7Z7D3 25-259)
T2 construct: Minimally biotinylated for KinExA; also called hB7H4-ECD-Flag-His10; B7-H4-FLAG
T2 sequence: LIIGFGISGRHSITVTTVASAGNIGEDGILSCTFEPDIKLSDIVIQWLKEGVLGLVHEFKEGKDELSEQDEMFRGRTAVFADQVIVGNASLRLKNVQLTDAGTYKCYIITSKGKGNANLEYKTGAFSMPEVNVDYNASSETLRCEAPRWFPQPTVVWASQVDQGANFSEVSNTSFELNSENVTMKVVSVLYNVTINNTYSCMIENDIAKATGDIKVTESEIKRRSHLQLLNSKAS

[3] = molecular target: T2, Human B7-H4 ECD-Flag-His10 (monomeric); remark: listed apart in the source

B1: ZY0EQD-E02 human IgG1-TM (antibody, V domains shown)
VH: QVQLQQWGAGLLKPSETLSLTCAVYGGSFSGYYWNWIRQPPGKGLEWIGEINHSGSTSYNPSLKSRVTISVDTSKNQFSLKLSSVTAADTAVYYCARVLYNWNVDSWGQGTLVTVSS
VL: DIQMTQSPSSLSASVGDRVTITCRASQDIRNDVGWYQQKPGKAPKRLIYAASRLQSGVPSRFSGSGSGTEFTLTISSLQPEDFATYYCLQHNSYPRTFGQGTKVEIK
B1 was tested, and the “EC50 (read off the curve)” value [1] was roughly 0.09 µg/mL and the “EC50 (read off the curve)” value [2] was roughly 0.08 µg/mL.

B2: ZY0EPQ-E02 human IgG1-TM (antibody, V domains shown)
VH: B1 VH with S58N, S70L, V98N, V104L
VL: B1 VL with D28G, V33L, K42R, A50V, R53S
In the case of B2, the “EC50 (read off the curve)” value [3] is reported as roughly 0.3 µg/mL.
